Results reported in patent US11376333B2, “mTG substrates for covalent conjugation of compounds” (COVALAB, priority 2013, dated 2022).

How the values were obtained:
[1] = target: T1, microbial transglutaminase (mTG) (Streptomyces mobaraensis, UniProt P81453); assay: mTG-mediated incorporation of biotin-X-cadaverine into peptides coupled on Covabtest plate; assay type: biochemical; details: 15 nmoles peptide coupled to plate, biot-cad 0.1 mg/ml, mTG 10 ng/well
T1 construct: purchased Covalab, France opr 0054
T1 sequence (P81453 77-407): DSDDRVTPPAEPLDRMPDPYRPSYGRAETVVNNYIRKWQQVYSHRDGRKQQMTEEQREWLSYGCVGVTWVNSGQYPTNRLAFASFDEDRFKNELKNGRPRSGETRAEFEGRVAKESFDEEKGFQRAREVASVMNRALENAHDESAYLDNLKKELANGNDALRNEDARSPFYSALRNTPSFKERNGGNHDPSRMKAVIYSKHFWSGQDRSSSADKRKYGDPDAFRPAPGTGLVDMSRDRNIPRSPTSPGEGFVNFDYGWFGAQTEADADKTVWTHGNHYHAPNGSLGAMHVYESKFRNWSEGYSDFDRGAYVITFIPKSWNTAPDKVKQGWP
Procedure: The coupling method was previously described by the Applicant (V. Thomas et al, 2004) and also in the corresponding data sheet of CovAbtest-Plate™ which is commercially available from Covalab (Ref #opr0004). Briefly, in separate tubes a solution mixture containing 150 μM of each peptide dissolved in 10 mM phosphate buffer pH5, 5 mM EDAC and 5 mM NHS was incubated for 30 min under gentle shaking. The resulting activated NHS-carboxyl C-terminal moiety of each peptide (15 nmoles) was used to be conjugated in each well of CovAbtest-Plate™ previously deprotonated during 15 min with 150 μl 0.6% sodium bicarbonate per well. The microtiter plate was then incubated during 2 hrs at room temperature and washed extensively with Tris Buffer Saline.
For this experiment we used the same procedures described by V Thomas et all (2004) and also in the Covalab's commercialized kit (opr0033). Briefly the Lyophilized transglutaminase was reconstituted in 40 mM tris buffer pH 8 and 50 μl of each mTG at 200 ng/ml and at 40 ng/ml were added in the wells containing 50 μl of biotin-X-cadaverine. The enzymatic mixture was incubated for 15 min at room temperature under gentle shaking. Then the plates were washed 3 times with TBS-Tween20 followed by the addition of 100 μl of diluted HRP labeled streptavidine ( 1/2000 in TBS Tween20, 0.5% BSA) in each well. After 30 min at room temperature and 3 washings in TBS-Tween20, 100 μL of TMB substrate were added and after 5 min the colour development was stopped using 100 μl of 0.5 M sulfuric acid. Absorbances at 450 nm were measured using a microplate reader (Multiskan, Labsystems, Helsinki, Finland).
To screen the peptide library (Covalab) and identify the putative new substrates of mTG we used Covabtest-peptide (described in B-I-1) in which the peptides were covalently coupled into the plates and the amine substrate Biotin-cadeverine (biot-cad) was free in solution. In this experiment 15 nmoles of each peptide (table 2) were covalently conjugated to microtiter plate and the incorporation of biot-cad (0.1 mg/ml) catalyzed by mTG (10 ng/well) was determined following the experiment described in B-II-1. Among all the peptides tested only few peptides were recognized by mTG as Gln (Q) donor to incorporate biot-cad as shown in the FIG. 1. The enzymatic activity was different between the peptide substrates. […] When Q is replaced by N (peptide HH12N11) no reactivity of the mTG was observed confirming the specificity of the enzyme to Gln donor. Moreover, if the reactivity of the 4 peptides (HH12Q11, DH6Q7, HG14Q11 and WG10Q7) is compared, it can be observed that the reactivity of the Gln depends on its position in the peptide sequence. In the most reactive peptides Q is located at the C-terminal. […]

[2] = target: T1, microbial transglutaminase (mTG); assay: mTG incorporation of biot-cad into coated BSA-peptide conjugate, with free-peptide competition; assay type: biochemical; details: 150 μM free peptide, mTG 100 ng/ml
Procedure: 2 mg of each peptide was dissolved in 1 ml of deionized water and 150 nmoles were mixed with 0.5 mg BSA solubilized in 50 mM bicarbonate buffer pH9.5. After shaking, glutaraldehyde was added at a final concentration of 0.25% (v/v). The mixtures were kept at room temperature during 16 hrs under gentle shaking. At the end of this incubation time, sodium borohydride was added at a final concentration of 10 mg/ml to stabilize the cross-linking between BSA and the peptides. After 2 hours each mixture of peptide-BSA was dialyzed separately in PBS to remove any free peptides.
High binding 96 wells-microtiter plates (Costar) were used to immobilize BSA-peptide and to human IgG-peptide conjugates prepared as described in M-4 and M-5. For these experiments, conjugates were prepared at 50 μg/ml in 50 mM sodium carbonate buffer pH 9 and 100 μl of each solution was dispensed in the number of wells needed for the experiment. After overnight incubation at 4° C., the plates were washed extensively with Tris Buffer Saline (TBS) and were ready to be used for TG activity.
The same procedure was used as described in B-II-1
In the literature its well known that many proteins are not substrate of transglutaminase even if many glutamine residues are present in their structures (Gorman J J, Folk J E. J Biol Chem. 1984 Jul. 25; 259(14):9007-10). […]

HDLMWPDVYSQH (Peptide HH12Q11)
reactivity as Gln donor for mTG incorporation of biot-cad [1]: good substrate for mTG | effect of added free peptide on mTG reactivity on BSA-HH12Q11 [2]: decreased
